Laboratory results reported in paper PMC4005694.

Assays:
[1] = target: Methanothermobacter thermautotrophicus 70S ribosome (M. thermautotrophicus (endogenous in M. thermautotrophicus cells)) (UniProt O26110); test: MST; fluorescently labelled (DY-495) 70S, 50S or 30S kept constant, unlabelled aaRS or control protein titrated (mSerRS 2.5 nM-40.8 µM, ArgRS 5.6 nM-91.9 µM on 70S); 20 mM Tris-HCl pH 7.5, 150 mM NaCl, 6 mM MgCl2, 1 mM DTT, 0.05% Tween-20, 0.4 mg/ml BSA; hyperbolic fit
[2] = target: Methanothermobacter thermautotrophicus large ribosomal subunit (M. thermautotrophicus (endogenous in M. thermautotrophicus cells)) (UniProt O26110); test: as above
Methanothermobacter thermautotrophicus large ribosomal subunit (M. thermautotrophicus (endogenous in M. thermautotrophicus cells)), sequence (O26110 whole entry, looked up, tested part not stated): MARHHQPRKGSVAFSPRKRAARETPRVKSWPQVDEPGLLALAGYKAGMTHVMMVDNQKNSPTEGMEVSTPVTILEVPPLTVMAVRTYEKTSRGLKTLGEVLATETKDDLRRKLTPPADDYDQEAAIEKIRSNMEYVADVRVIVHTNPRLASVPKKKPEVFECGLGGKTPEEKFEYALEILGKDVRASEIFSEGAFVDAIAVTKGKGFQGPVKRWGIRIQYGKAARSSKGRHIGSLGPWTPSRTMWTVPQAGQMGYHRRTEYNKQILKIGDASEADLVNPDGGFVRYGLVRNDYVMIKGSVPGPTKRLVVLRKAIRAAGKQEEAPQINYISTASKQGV

Methanothermobacter thermautotrophicus 70S ribosome (M. thermautotrophicus (endogenous in M. thermautotrophicus cells)), sequence (O26110 whole entry, looked up): as the sequence (O26110 whole entry, looked up, tested part not stated) above

B1: Methanothermobacter thermautotrophicus methanogenic-type seryl-tRNA synthetase (enzyme)
chain: MKFKLKGIIKLSKEVPGIEDDLEKFFTEAESDILRRGVPEGQEHEAAHIKSWRLEGDTLHIEMESGRRVRAHDGLLRLKKPLGQLLGPKYRVGVRGISVTDYTMEMKAPGVSGIPSLAELPFVEDAAITDGTIMVRFQPLEESDLRKHVFDRVVKHARTLVESSDDLTVQVTRATPGEIIARSRSRDFFFEGDPTEEAMRLGWVKKFPGRGQWFYGPKITALHRALEEFFIERIVKPLGFVECLFPKLIPLDIMNKMRYLEGLPEGMYYCSAPSRDPETFEEFKNELIINREVPMDLLKRGIKDPGYVIAPAQCEPFYQFLSHEVVSAEDLPVKFFDRSGWTYRWEAGGSKGLDRVHEFQRVELVWLAEPGETEEIRDRTVELSHDAADELELEWYTEVGDDPFYLEGRKVEERGIEFPDVPKYEMRLSLPGREKGVAVVSANVHGTHFIEGFSIREARNLNIWTGCTGIGLSRWIYGFLAQKGFETGNWPDFIGERVEGVENPRIITWPRQD
**Q.** With B1 as the binder, how does the Kd [1] read?
**A.** The Kd was 1250 nM.

**Q.** What about the Kd [2] of the same binder?
**A.** The Kd was 1290 nM.

B2: Methanothermobacter thermautotrophicus arginyl-tRNA synthetase (enzyme)
chain: MFRYIEKEARDSITAALEKLGIKVPPEIKLEEPPNPQLGDLASTVSFELAGKLRRAPIEITADIMSVIETPEIFETIESKGPYINFFVDYGRFSSRLLESIQDDYGSHPPRDERVILEHTSANPNGPLHIGHIRNAIIGDSLARILRMAGYDVETQYYVNDMGRQIAMIVWGLLNLDGDLEDYPGDKMDHRVGKLYFEVNQRLKENPGIRDEVDELIRKYEAGENEELFRKVVEYCLSGMEETMKRLHVHHDRFVWEGQFVRDGTVDRVIESLRKTGYTGENDVLYLDLEEFGLEKELVLTRSDGTSLYSTRDIAYHLQKSEEGDVIIDVLGSDHKLAAEQVGIAVELLGGKRPEVIFYEFITLPEGSMSTRRGVFISVDELMDEAHSRALHEVKKRRDLPDDVADDIAESIGNGAIRYYIARLSPEKHIVFRWDDALSFERGCASIQYAHARACKLLEKASFTGEEDIEDGWKPEGDERELVRLLARFPVVVEESALARRVHPVAQYAQDLANTFNSFYRSTPVIGSDFEGARLRLVDSVRKTLRNALNLLGIHAPETM
**Q.** With B2 as the binder, how does the Kd [1] read?
**A.** The Kd was 4700 nM.
